± gives the half width of the 95% confidence interval.
Legend:
[1] = folding stability dG unfold (combined trypsin and chymotrypsin); higher = more stable
Outline: (§1)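 Digests were run with trypsin and chymotrypsin at 11 concentrations in threefold dilutions, plus a no-protease condition, on designed mini-proteins in a PA-tagged cDNA display construct. The mini-proteins were under 80 residues, had no cysteine, and were kept only when AlphaFold2 dimer inter-PAE was above 15. After sequencing, Bayesian fitting of the counts gave K50, from which unfolding free energy was derived against a sequence-predicted unfolded-state K50 and a shared folded-state K50, per protease or combined.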

[2] = folding stability dG unfold from chymotrypsin proteolysis; higher = more stable
Outline: as §1

[3] = folding stability dG unfold from trypsin proteolysis; higher = more stable
Outline: as §1

| Sequence | folding stability dG unfold [1] | folding stability dG unfold [2] | folding stability dG unfold [3] |
| --- | --- | --- | --- |
| SAGGSAGGSDETLTVTRGRTETVTVRRVERRPPAAAPPLKVTLSAVLDADGRLVSVSASVELLSAGGSAGGS [r12_727_TrROS_Hall] | 7.96 ± 0.628 kJ/mol | 7.88 ± 0.151 kJ/mol | 8.77 ± 0.209 kJ/mol |
| SAGGSAGGSDGVIQIPIKSDDGEEFKIEIPIEQIKKMMKEGRPIKIWLFDNGKMVRPFEIPIDSAGGSAGGS [r12_991_TrROS] | 3.08 ± 0.795 kJ/mol | 4.44 ± 0.628 kJ/mol | 1.79 ± 0.502 kJ/mol |
| SAGGSAGGSDPLVSFPLEVELPGGEKVELHFIPGPRLVIARFPDRPVLFYTDGDGVITRVDPISAGGSAGGS [r12_47_TrMRF] | 0.194 ± 0.268 kJ/mol | -1.52 ± 0.46 kJ/mol | 1.41 ± 0.247 kJ/mol |
| SAGGSAGGSDPVPIVITYPDGSTSTTLEPDKIYITYPSKGLKYVVPIDLSTNKISFSLESSLPSAGGSAGGS [r12_539_JUSTAS] | -1.06 ± 0.335 kJ/mol | -0.318 ± 0.46 kJ/mol | -2.92 ± 0.502 kJ/mol |
| SAGGSAGGSDTVNVKVTVSFPPGTETKEITVNVPVVPGNPDVVKAKVDELAAAFPDAVVTAEKSAGGSAGGS [r12_795_TrMRF] | 6.68 ± 0.502 kJ/mol | 8.34 ± 0.397 kJ/mol | 1.23 ± 0.326 kJ/mol |
| SAGGSAGGSDYLMIWIPPDALKGMPPGQEIEFEIKFNGGEYKVKIKVMPHENGHYMIMITVEPSAGGSAGGS [r12_433_TrROS] | 17 ± 1.05 kJ/mol | 19.2 ± 1.26 kJ/mol | 13.4 ± 1.46 kJ/mol |
| SAGGSAGGSEEEVEIKVVEPVDVVVLPDGTVRRTFRVEDGALLVITVHFPPDGNPVGEIEIFPSAGGSAGGS [r20_240_TrMRF] | 7.01 ± 0.669 kJ/mol | 6.88 ± 0.167 kJ/mol | 6.53 ± 0.134 kJ/mol |
| SAGGSAGGSEEEVEIVDVEIEEKDGKLVIRAKIRNKETGELYEVTLVFDKETGELHLEVRKLPSAGGSAGGS [r12_14_TrROS_Hall] | 16.5 ± 0.628 kJ/mol | 15.8 ± 0.544 kJ/mol | 16.7 ± 0.406 kJ/mol |
| SAGGSAGGSEEVVVVEVEGELVVVTKEETVTVVPAPPPPPLTAEQRALAKELEKLGLEVEIRDSAGGSAGGS [r12_172_TrROS_Hall] | -1.59 ± 1.55 kJ/mol | -2.11 ± 0.46 kJ/mol | -0.804 ± 0.669 kJ/mol |
| SAGGSAGGSEITIFIKGLPDPEAIADQIADAFGYPVKDVDVQRMPNNPWMMITVTYNGKEITISAGGSAGGS [r12_935_TrROS] | 7.79 ± 0.347 kJ/mol | 8.24 ± 0.126 kJ/mol | 6.62 ± 0.092 kJ/mol |
| SAGGSAGGSEITITLDEETGELHITVPESVKEVKIKVNGEEKTVTLKPGQTLTIPLENVEIEESAGGSAGGS [r20_26_TrROS_Hall] | 7.09 ± 0.837 kJ/mol | 6.5 ± 0.264 kJ/mol | 7.34 ± 0.46 kJ/mol |
| SAGGSAGGSEITLVFKTKEEAEKAAEELAKKYNVEVTVEENEETGLYVVTIKLPENGKEITILSAGGSAGGS [r12_635_TrROS_Hall] | 8.2 ± 0.795 kJ/mol | 8.5 ± 0.247 kJ/mol | 7.03 ± 0.268 kJ/mol |
| SAGGSAGGSEKEGTLLVKLINPENPEEKVIPLKFKVKTKEDVDTFLENIKKKYPGVTVEVEDLSAGGSAGGS [r12_65_TrMRF] | 2.69 ± 0.711 kJ/mol | 2.86 ± 0.879 kJ/mol | 2.76 ± 0.205 kJ/mol |
| SAGGSAGGSEKEIEIELPEGAEIVEIDEEKGVITVRVNGKLIEIEIKPVKVEKVEVELPPEEESAGGSAGGS [r12_243_TrROS_Hall] | 10 ± 0.711 kJ/mol | 7.23 ± 0.544 kJ/mol | 11.6 ± 0.795 kJ/mol |
| SAGGSAGGSEKEIEVNGKKITIEKNEDGSYKLIIEVNGKKYEITLSLEELKKKNLTIEELLKKSAGGSAGGS [r20_90_TrROS_Hall] | 13.6 ± 0.669 kJ/mol | 15.1 ± 0.544 kJ/mol | 8.04 ± 0.301 kJ/mol |
| SAGGSAGGSEKEVYVRNENGELYRFRAKAAPKLKLKLKLELERDENGNLSLRLELEVVSEEDLSAGGSAGGS [r12_1027_TrROS_Hall] | 19.4 ± 1.67 kJ/mol | 21.7 ± 0.628 kJ/mol | 14.9 ± 0.586 kJ/mol |
| SAGGSAGGSEKKFKIVSVKVEYNKETGTVTIEVEIYDEKTGKLVLKATITINKNGELKITLEPSAGGSAGGS [r12_115_TrROS_Hall] | > 25.1 kJ/mol | 22 ± 1.92 kJ/mol | 16.3 ± 1.88 kJ/mol |
| SAGGSAGGSEKPEVEKITLEITLTDEDGNKHTIKVELVRNAKTKKYYLRITLEDGSEFVFEIDSAGGSAGGS [r12_286_TrROS_Hall] | 19.7 ± 0.544 kJ/mol | 20.2 ± 0.586 kJ/mol | 16.2 ± 0.586 kJ/mol |
| SAGGSAGGSEKVTIRFPAKELRERFPNATPEQIADRIAKKFPNIKRIEVEQEPGYYRITVQVESAGGSAGGS [r12_590_TrROS] | 8.99 ± 0.502 kJ/mol | 6.24 ± 0.18 kJ/mol | 10.8 ± 0.502 kJ/mol |
| SAGGSAGGSELNIEKIVVLDYDPETGLAYVKIFYGDGEVKEFKVKSLEELKEKFPDVEILEKGSAGGSAGGS [r12_403_TrMRF] | 18.5 ± 0.272 kJ/mol | 19.1 ± 0.351 kJ/mol | 15.2 ± 0.502 kJ/mol |
| SAGGSAGGSELPIKEITVTSYDPKTGKYTVTITQGEGPTYTTTATSPEEVKKRYPDVKVTTSGSAGGSAGGS [r12_403_JUSTAS] | 3 ± 0.234 kJ/mol | 3.29 ± 0.146 kJ/mol | 1.82 ± 0.222 kJ/mol |

| Sequence | folding stability dG unfold [1] | folding stability dG unfold [2] | folding stability dG unfold [3] |
| --- | --- | --- | --- |
| SAGGSAGGSEPVTVMFWFDSPEEIDELIDELKGAGIKKVEMEPFPGRYWLTITVDGAEIHIMFSAGGSAGGS [r12_846_TrROS] | 13.8 ± 0.586 kJ/mol | 15.84 ± 0.13 kJ/mol | 10.3 ± 0.28 kJ/mol |
| SAGGSAGGSEPVVLTLPTPRGGRITITYDPSSNTATVTLPDGTVVTLSVTSVAEAKAAALAALSAGGSAGGS [r12_866_JUSTAS] | 14.71 ± 0.105 kJ/mol | 15.47 ± 0.0753 kJ/mol | 13.3 ± 0.167 kJ/mol |
| SAGGSAGGSESKITILVLDEETQELYLIEVTLKYNPETGELETEMKIEKITLKPGEKLDLKDLSAGGSAGGS [r12_700_TrROS_Hall] | 12.3 ± 0.837 kJ/mol | 13.7 ± 0.544 kJ/mol | 10.2 ± 0.837 kJ/mol |
| SAGGSAGGSETVTLELTLEDGRTLRIEFDPETQRLTVTFPDGSKQEIEVETLDDALAALLEALSAGGSAGGS [r12_866_TrROS_Hall] | 15.1 ± 0.259 kJ/mol | 15.9 ± 0.301 kJ/mol | 12.2 ± 0.46 kJ/mol |
| SAGGSAGGSFEFPENRPNAKVKVVVQRPDGSPEEFEAEVLPDGTVTLDLPDYPIDRILSVEFGSAGGSAGGS [r12_477_TrMRF] | -0.923 ± 0.711 kJ/mol | -1.58 ± 0.795 kJ/mol | 0.128 ± 0.502 kJ/mol |
| SAGGSAGGSFRIDPEKIEKVKHHRNPNGGGYHTIRLPGGPVKIPFRGMDPGDMEDQVKNFLKNSAGGSAGGS [r12_585_TrROS] | 0.987 ± 0.586 kJ/mol | 1.12 ± 0.795 kJ/mol | 0.674 ± 0.46 kJ/mol |
| SAGGSAGGSFVDPDGYKVIEFPIPMDDPGRIKEEVMDQFNLKDVKVEWEPTPGWYWVSIIVEPSAGGSAGGS [r12_929_TrROS] | 3.48 ± 0.586 kJ/mol | 3.41 ± 0.669 kJ/mol | 3.1 ± 0.389 kJ/mol |
| SAGGSAGGSGDDIPTLTLVIKVDPNAITPEDIEEIKQAFLDLGYKEVTVTRNPETGYLVVELGSAGGSAGGS [r12_1025_TrMRF] | 12.6 ± 0.879 kJ/mol | 12.3 ± 0.46 kJ/mol | 12.7 ± 1.05 kJ/mol |
| SAGGSAGGSGFKIVKVDTETGYVYVEVPKSAEKELEKLPSVEKVEEKEDSVLYRLRIPPFAALSAGGSAGGS [r12_694_TrMRF] | 7.57 ± 0.795 kJ/mol | 8.16 ± 0.36 kJ/mol | 7.46 ± 0.289 kJ/mol |
| SAGGSAGGSGGMMSRTINVSVNPAPGESPEDIVKALAAELGVTIKSVKYSTSSSSLTFTIEVVSAGGSAGGS [r20_188_JUSTAS] | 9.02 ± 0.285 kJ/mol | 10.4 ± 0.322 kJ/mol | 4.41 ± 0.167 kJ/mol |
| SAGGSAGGSGIKIIMEFIFPDDGYIFKIEIDIKPNPENGEPVIEMKIEMYPIDPGQPPDLKDLSAGGSAGGS [r12_700_TrROS] | 13.6 ± 0.837 kJ/mol | 14.4 ± 0.297 kJ/mol | 10.4 ± 0.46 kJ/mol |
| SAGGSAGGSGIKITEYKINPETGTIEKTEIYIKPIPNTNKLKIEKKTKSIPILPDQKPDLSLDSAGGSAGGS [r12_700_TrMRF] | 1.73 ± 1.13 kJ/mol | 3.38 ± 1.51 kJ/mol | -0.984 ± 0.753 kJ/mol |
| SAGGSAGGSGITIPAGSPEKVYELLSALEKLGFKPKKVSVSGNYVIVDFENGIPVNIEINPGKSAGGSAGGS [r20_93_TrMRF] | 9.98 ± 0.218 kJ/mol | 11.9 ± 0.163 kJ/mol | 4.46 ± 0.247 kJ/mol |
| SAGGSAGGSGKKRKVEIPIFFSGPPEVADNLAKTLAQELGLPPEDVDIEIKVIPIMPPEQMAESAGGSAGGS [r12_1066_TrROS] | 3.02 ± 0.318 kJ/mol | 3.42 ± 0.192 kJ/mol | 2 ± 0.226 kJ/mol |
| SAGGSAGGSGLTKELAKKFNVTAIEEFENGLVKILTKPPIKGNPYLAIIDPKNKKVYIIPLNPSAGGSAGGS [r12_944_TrMRF] | 5.41 ± 0.297 kJ/mol | 6.77 ± 0.343 kJ/mol | 3.55 ± 0.155 kJ/mol |
| SAGGSAGGSGMEKIVVEVKFPDGTVETYEFPAGVPVNIDPAVTGDVKITTLDPEGKTTEYVLKSAGGSAGGS [r12_380_JUSTAS] | -0.495 ± 0.418 kJ/mol | -1.24 ± 0.837 kJ/mol | -0.337 ± 0.192 kJ/mol |
| SAGGSAGGSGMELEKLLESVKEVKVEPTSSGEKEVTITLKPPEPSETEVKIDKETYEKLLELKSAGGSAGGS [r12_466_JUSTAS] | 0.573 ± 0.502 kJ/mol | 1.69 ± 0.1 kJ/mol | -3.8 ± 0.879 kJ/mol |
| SAGGSAGGSGMKTLTIEFPNVTLEEAKEAVLKLLEELGLEPIPLEKVTITYHPENPNVITVVESAGGSAGGS [r12_122_JUSTAS] | 5.63 ± 0.711 kJ/mol | 4.79 ± 0.502 kJ/mol | 6.29 ± 0.41 kJ/mol |
| SAGGSAGGSGPMPVVVPVEVVVAPGEVDAYVARLRAEGLEVLSVETEPDPEGGTRVTVTVRRLSAGGSAGGS [r12_905_JUSTAS] | 14.3 ± 0.247 kJ/mol | 15.6 ± 0.238 kJ/mol | 11.4 ± 0.226 kJ/mol |
| SAGGSAGGSGSLRLRVRSPEQALEWLRRVLPPDFDLTPEELEELVRFLLATSEVTPDGYLLLRSAGGSAGGS [r12_983_TrMRF] | 9.69 ± 0.176 kJ/mol | 10.5 ± 0.213 kJ/mol | 7.639 ± 0.0753 kJ/mol |

Source: the supplement of paper PMC12764529
